Measurements published in publication PMC3425481, “Differential Regulation of Smad3 and of the Type II Transforming Growth Factor-β Receptor in Mitosis: Implications for Signaling” (PLoS ONE, 2012).

Target: T1, Smad3 phosphorylated at the C-terminus (pSmad3C) (human (endogenous in ES-2), UniProt P84022 1-425, phospho-serines 423/425 (C-terminal SSXS motif))
T1 construct: Smad3, endogenous in human ES-2 ovarian cancer cells, precipitated with α-pSmad3C (raised against phospho-serines 423/425 of Smad3); The α-pSmad3C antibody cross-reacts with C-terminus phosphorylated Smad2; In 2ME2-arrested cells Smad3 is also phosphorylated on threonine 179, but pSmad3(179) was detected inconsistently in the immunoprecipitates; also called C-terminally phosphorylated Smad3; …
Test: co-IP; immunoprecipitation with α-pSmad3C (overnight, 4°C) and protein A-sepharose from lysates of 10^8 ES-2 cells treated with TGF-β1 (1 h) or 2ME2 (16 h); 420 mM NaCl, 50 mM Hepes pH 7.8, 5 mM EDTA, 1% NP-40, 3% DTT; blots with α-Ski, α-Smurf2, α-tSmad2/3; control: sepharose beads alone
Conditions: partners not purified

T1 sequence (P84022 whole entry): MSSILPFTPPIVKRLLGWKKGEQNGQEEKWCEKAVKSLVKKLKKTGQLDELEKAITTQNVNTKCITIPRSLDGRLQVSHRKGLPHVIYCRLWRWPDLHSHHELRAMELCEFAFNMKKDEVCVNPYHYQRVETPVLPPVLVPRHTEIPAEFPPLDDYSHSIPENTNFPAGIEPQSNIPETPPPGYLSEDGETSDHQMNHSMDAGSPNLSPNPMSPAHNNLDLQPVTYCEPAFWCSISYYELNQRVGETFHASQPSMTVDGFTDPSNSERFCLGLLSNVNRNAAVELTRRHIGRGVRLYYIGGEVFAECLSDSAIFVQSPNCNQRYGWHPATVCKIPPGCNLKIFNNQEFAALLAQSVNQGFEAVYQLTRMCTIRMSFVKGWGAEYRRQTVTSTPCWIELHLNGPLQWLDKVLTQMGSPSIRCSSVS

fold increase of the Ski/tSmad3 ratio in the anti-pSmad3C immunoprecipitate, 2ME2-arrested cells relative to TGF-β1-activated cells: 7.7 ± 1.7 fold
B1: Ski (natural protein, human (endogenous in ES-2), UniProt P12755 1-728, looked up)
chain: MEAAAGGRGCFQPHPGLQKTLEQFHLSSMSSLGGPAAFSARWAQEAYKKESAKEAGAAAVPAPVPAATEPPPVLHLPAIQPPPPVLPGPFFMPSDRSTERCETVLEGETISCFVVGGEKRLCLPQILNSVLRDFSLQQINAVCDELHIYCSRCTADQLEILKVMGILPFSAPSCGLITKTDAERLCNALLYGGAYPPPCKKELAASLALGLELSERSVRVYHECFGKCKGLLVPELYSSPSAACIQCLDCRLMYPPHKFVVHSHKALENRTCHWGFDSANWRAYILLSQDYTGKEEQARLGRCLDDVKEKFDYGNKYKRRVPRVSSEPPASIRPKTDDTSSQSPAPSEKDKPSSWLRTLAGSSNKSLGCVHPRQRLSAFRPWSPAVSASEKELSPHLPALIRDSFYSYKSFETAVAPNVALAPPAQQKVVSSPPCAAAVSRAPEPLATCTQPRKRKLTVDTPGAPETLAPVAAPEEDKDSEAEVEVESREEFTSSLSSLSSPSFTSSSSAKDLGSPGARALPSAVPDAAAPADAPSGLEAELEHLRQALEGGLDTKEAKEKFLHEVVKMRVKQEEKLSAALQAKRSLHQELEFLRVAKKEKLREATEAKRNLRKEIERLRAENEKKMKEANESRLRLKRELEQARQARVCDKGCEAGRLRAKYSAQIEDLQVKLQHAEADREQLRADLLREREAREHLEKVVKELQEQLWPRARPEAAGSEGAAELEP
notes: Ski, endogenous in human ES-2 ovarian cancer cells, detected with α-Ski (Santa Cruz); source: endogenous, ES-2 cell lysate
